Laboratory results reported in paper PMC9508830.

Biological target: GAr fused to the N-terminus of p53 (GAr-p53), nascent peptide on polysomes (Epstein-Barr virus | not stated)
Assay: proximity ligation; PLEA (PLA ELISA): polysomes of cycloheximide-treated H1299 lysates captured on 96-well plates with goat anti-RPL5, increasing amounts of polysomes; in vitro PLA with anti-p53 (rabbit) and anti-NACA (mouse)

nascent polypeptide-associated complex subunit alpha (NACA), endogenous in H1299 cells (from UniProt Q13765 1-215) (natural protein)
fold interaction (PLEA signal) against p53: 3 fold
